Data published in the nanobody polyreactivity screen of Harvey et al. (2022).

Test: yeast display, Sf9 membrane polyspecificity reagent, FACS + sequencing; frameworks hold sequencing errors
How it was run: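 Polyreactivity labels are assigned by the sorting gate from which each nanobody was recovered. The gates were low and high (top ~1%), set on anti-HA fluorescence for expression and streptavidin fluorescence for reagent binding. Before sorting, galactose-induced (36–48 hours) yeast display cells were stained for 1 hour at 4 °C with 10% biotinylated, detergent-solubilized Sf9 membrane reagent.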

Sequence | polyreactivity (PSR sort gate)
QVQIEESRVGLVQAGGSLRLSCAASGSIIYENMGWYRPAPGKERELVASISWSGTSTYADSVKGRFTMTRDNAKTTVYLLMNSLKPEDTAVYSCAAYPYPFYQSKYLGIGYGFWGQGTQVTVSS | high polyreactivity
QVQILESGGWLVQAGGSLRLSCASSGRTFDVYAMGWYRQAPGKERELVAAISWGAGNTYYADSVKGRFTISRDNAKNTVYLQMNSLKPEDTAVYYCAAEDDWSEYDYWGQGTQVTVSS | high polyreactivity
QVQIVDSGRGLVQAGGSLRLSCAASGRTFIRYTMGWSRQATGKERELFAAITSGGITNYADSVKGRFTISRDNAKNPVYLQMNSLKPQDSALYYCAARHRWVTGSYGKYDYLGQGTQVTVSS | low polyreactivity
QVQIVESGAGLVQAGGSLRLSCAASGSIYAPNAMGWYRQAPGKERELVAAISRSGGRTYYADSVKGRFTISRDNAKNTVYLQMNSLKPEDTAVYYCAADYKHQRTYGSWGQGTQVSVSS | high polyreactivity
QVQIVESGGAFVQAGGSLRLRCEASGSTFVNKDMGWSRPAPGKEREFVAAIRNTGGRTYYADSVKGRFTISRDNAKNSVYLQMNSLKPEDTAVYYCAAVSRVRTLWRMDYWGQGTQVTVSS | high polyreactivity
QVQIVESGGALVQAGGGHRLSCAASGRTFTYNAMGWYRQAPGKERELVAAITSGGSTNYADSVKGRFTISRDNAKNTVYLQMNSLKPEDTAVYYCAARRVYYSYRRYYYWGQGTQVTVSS | low polyreactivity
QVQIVESGGALVQAGGSLRLSCAASGITLRPYAMGWYRQAPGKERELVAAITSSGGSTYYADSVKGRFTISRDIAKNTVYLLMNSLIPEDTAVYYCAALRVYAGDYWGQGTQVTVSS | low polyreactivity
QVQIVESGGALVQAGGSLRLSCAASGSTHGNAMGWYRQAPGKERELVAAISLNTGSTYYADSVKGRFTISRDNAKNTVYLQMNSLKPEDTAVYYCAAGGTARDDSWGQGTQVTVSS | low polyreactivity
QVQIVESGGFLVQAGGSLRLSCDASGRNIPGYGMGWSRHAPGKERELVAVITSNGGITYYADSVKGRFTISRDYAKNTVYLQMNSLKPEDTAVYYCDAYVIYYEFDSWGQGTQVTVSS | low polyreactivity
QVQIVESGGGFVQAGGSLRLSCAASGRIYGNTMGWYRQAHGKERELVAAITRSGVSTYYADSVKGRFTISRDNAKNTVYLQMNSLKPDDTAVYYCAAREWSGPKINPPYRYNSWGQGTQETVSS | high polyreactivity
QVQIVESGGGLFQAGGSLRISCAASGRIFQYYTMGWYRQAPGKERELVATISRRGGTTYYADSVKGRFTISRDNAKNTVYLQMNSLKPEDTAVYYCNADSRTYRYYWSYGYWGQGTQVTVSS | high polyreactivity
QVQIVESGGGLFQAGGSLRISCAPSGRTLRYNTMGWYRQAPGKERELVAAISIRGGSTYYADSVKGRFTISRDNAKNTVYLQMNSLKPEDTAVSYCNARFTYRWGMGYWGQGTQVTVSS | high polyreactivity
QVQIVESGGGLFQAGGSLRLICAASGRIFGNYSMGSSRQEPGKEREFVAAIDWSGGTTYYADSVKGPFTISRDNAKNTVYLQMNSLKPEDTEVYYCAAKYVYSVGNYRYDYWGQGTEVTVSS | low polyreactivity
QVQIVESGGGLVQAAGSLRLSCAAYGRIFGVYAMGWYRQAPGKERELVSNITSGGSTSYADSVKGRFTISRDNAKNTVYLQMNSLKPEDTAVYYCNAPYSFFWQQMNYWGQGTQVTVSS | low polyreactivity
QVQIVESGGGLVQAGCSLRLSCAASGHTFTIKAMGWYRQAPGKERELVAAITFSGGRTYYADSVKGRFTISRDNAKNTVYLQMNSLKPEDTAVYYFAADNPGGSIYDYWGQGTQVNVSS | low polyreactivity
QVQIVESGGGLVQAGGILRLSCAASVITFGYYAMGWYSQAPGKEWELVAAISRSGGNTRYADSVKGRFTISRDNAKNTVYLQMNSLTPEDTAVYYCAAYSRYTRTFPLFSGSRYGYWGHGTQVTVSS | high polyreactivity
QVQIVESGGGLVQAGGRLRLSCAASGSIFSIYDMGWYRQAPGKERELVAAITWGGASTYYADSVKGRFTISRDNAKNTVYLQMNSLKPEDTAVYYCAADSLTWNGTYYYWGQGTQVTVSS | high polyreactivity
QVQIVESGGGLVQAGGRLSLTCAASGRIFTAYAMRWYRPAPGKEREFVAAISARGGSTNYADSVKGRFTISRDNAMNTVYLQMNSLKPEDTAVYYCHARFVQWYWIGNVIHIDNDYWGQGSQVTVSS | low polyreactivity
QVQIVESGGGLVQAGGSHRLSCAASVFTFGGNVMGWYRQAPGKEREFVAAISSSGGSTYYADSVKGRFTISRDNEKNTVFLQINSLKPDDTAVYYCAKYAVVYQYRYYHWGQGTQVTVSS | high polyreactivity
QVQIVESGGGLVQAGGSLPLSCAASGFIYNYNAMGWYRQAPRKERELVAAISTSGSSTYYADSVKGRFTISRDTPKNTVYLQMNSLKPEVTAVYYCARYRVARGEGGWLYDYWGQGTQVTVSS | high polyreactivity
QVQIVESGGGLVQAGGSLRISCAASGRIFRTYAMGWYRQAPGKERELVAAISSRGGSTSYADSVKGRFTISRDNEKNTVYLQLNSLKPEDTAVYYCARVGRNPVKYDYWGQGTQVTVSS | high polyreactivity
QVQIVESGGGLVQAGGSLRISCAASGRTYRFYAMGWYRQAPGKERELVAAISSGGSTYYADSVKGRFTISRDNAKNTVYLQMNSLNPEDTAVYYCAAQRWRGASLYDYWGQGTQVTVSS | high polyreactivity

Sequence | polyreactivity (PSR sort gate)
QVQIVESGGGLVQAGGSLRLCCAASGRTFYGSKMGWYRQAPGKESELVAAISRNGASTFYADSVKRRFTISRDNAKKSVYLQINILKPEYTGVYYFNARSWRHTDTSFEYWGQGTQVTVSS | high polyreactivity
QVQIVESGGGLVQAGGSLRLRCAASGITFSIYAMGWYRQAPGKERELVAAIDSGGGTNYADSVKGRFTISLDNAKNTVYLQMNSLKAEDTAVYYCAADFLKVDWYDYWGQGTQVTVSS | low polyreactivity
QVQIVESGGGLVQAGGSLRLRCAASGRIVKYAMGWYRHAPGKERELVAAINSGGSTKYADSVKGRFTISRDNAKITVYLQMICLKPEDTAVYYCAARILYHMDLGQGTQVTVSS | high polyreactivity
QVQIVESGGGLVQAGGSLRLSCAASGFIFQTNVMGWYRQAPGKERELVAAISSGDSTYYADSVKGRFTISRDNAKNTVYLQMNSLKPEDTAVYYCAADVLGTTTTVGGFNYWGQGTQVTVSS | low polyreactivity
QVQIVESGGGLVQAGGSLRLSCAASGFIFYSYAMGWYRQAPGKEREFVASISGRTGSTYYADSVKVRFTISRDNAKNTVYLQMNSLKPEDTAVYYCNARIVHSFRYDYWGQGTQVTVSS | low polyreactivity
QVQIVESGGGLVQAGGSLRLSCAASGFILNYYGMGWYRQAPGKERELVATISRGASTNYADSVKGRFTISRDNAKNTVYLQMISLKPEETEVYSCAKDYGDWGQGTQVTVSS | low polyreactivity
QVQIVESGGGLVQAGGSLRLSCAASGFTFALYAMGWYRQEPGKEREWVAANTRSGRTKYADSVKGRFTISRDNAKNTVYLQMNSLKPEDTAVYYCAADFRYYVTTRFNYWGQGTQVTVSS | high polyreactivity
QVQIVESGGGLVQAGGSLRLSCAASGFTFVYYVMGWYRPAPGKERELVAAINSGGGSTYYADSVKGRFTISRDKAKNTVYLQMKSLKPEDTAVYYCNARVRVRLGRNWSSYYYWGQGTQVTVSS | high polyreactivity
QVQIVESGGGLVQAGGSLRLSCAASGIIFGRNTMGWYRQAPGKERELVAGISSNGGSTYYADSVKGRFTISRDNAKNTVYLQMNSLKPEDTAVYYCAAYYNIPDRRRVGYDYWGQGTQVTVSS | high polyreactivity
QVQIVESGGGLVQAGGSLRLSCAASGIIFYNYAMGWYREAPGKERELVAAITGTGSRTYYADSVKGRFTISRDNAKNTVYLQMNSLNPEDTAVYYCAVNTRRYWYGYWGQGTQVTVSS | high polyreactivity
QVQIVESGGGLVQAGGSLRLSCAASGNTFNYYTMGWYIQAPGKERELVAAIRSGGRTYYADSVKGRFTISRDNANNSVSLQMNSLKPEDTAVYFCAALAVTYRYDYWGQGTQLTVSS | high polyreactivity
QVQIVESGGGLVQAGGSLRLSCAASGRIFGPYAMVWYRQAPGKERELVAAIRASSSSTYYADSVKGRFTISRDNAKNTVYLQMNSLKPEDTAVYYCAADWYYGYAWKYGYWGQVTQVTVSS | low polyreactivity
QVQIVESGGGLVQAGGSLRLSCAASGRIFNIYAMGWYRQAPGKERELVADIRWNGGSTYYADSVKGRFTISRDNAKNTVYLQMNSLKPEDTAVYYCAAARRRRFYDYYNAWYDVDYWGQGTQVTVSS | low polyreactivity
QVQIVESGGGLVQAGGSLRLSCAASGRIFRNTMGWYIQAPGKERDLVAAITDTTDSTYYADSVKGRFTISRDNAKNTVYLQMNSLKPEDSAVYYCAARYGGYVNRPYYYWGHGTQVTVSS | low polyreactivity
QVQIVESGGGLVQAGGSLRLSCAASGRIFSQNTMGWYRQAPGKERELVAVISWRGGRTSYADSVKGRFTISRDNAQNTVYLQMNSLKPEDTAVYYCNAKRYAGSNYDYWGQGTQVTVSS | high polyreactivity
QVQIVESGGGLVQAGGSLRLSCAASGRISEANAMGRYRQATWKERELVAAIDFSDGSTYYADSVKGRFTISRDNAKNTVYLQMNSLKPEDTAVYYCAADDQYYPYDYWGLGTQVTVSS | low polyreactivity
QVQIVESGGGLVQAGGSLRLSCAASGRTFNQYAMGWYRQAPVKERELVAAISASGGNTYYADSVKGRFTISRDNAKNNVYVQMNSLKQEDTEVYYCADKQSSSRYYGNDYWGQGTQVTVSS | high polyreactivity
QVQIVESGGGLVQAGGSLRLSCAASGRTFRENAMGWYRQAPGKERELVAAAISSGDGTNYADSVKGRFTISRDYAKNTVYLQMNSLQPEDTAVYYCAADGPRDSYDYWGQGTQVTVSS | low polyreactivity
QVQIVESGGGLVQAGGSLRLSCAASGRTFTAYAMGWYRQAPGKERELVAAITTSGGTTYYADSVKGRFTISRDNAKNTVYLQMKSLKPEDTAVYYCAADVVVSWWLIYDYWGQGTQVTVSS | low polyreactivity
QVQIVESGGGLVQAGGSLRLSCAASGRTVGYNPMGWYRQAPGKETELVAVIRSGGSTYYADSVKGRFTISRDNAQYSVYLQLHSLIPEDSEVYYCAATGLYNVTSPYSYKYDYWGQCTQVTVSS | low polyreactivity
QVQIVESGGGLVQAGGSLRLSCAASGSICTHNDMGWYRPSTWKERELVAAISTSGGRTYDADSVKGSFTISRDTAKNTVYLPMNSLKPEDTAVYYCNDRSVRSRYDYWGQGTQVTVSS | high polyreactivity
